This is an account of results in the DeepSol protein solubility set.

A short description of the series: soluble on expression in E. coli; label from the status in PepcDB or PDB records.
As to “MGSDKIHHHHHHMGEGLSVIGFDADDTLWQNESFFRLTEDKFAELLADFAEGAHLRERLLALETKNIGHYGFGIKGFMLSMIETAVEVTEGRVDGSVISKILEMGQDMLRHPIHLLPHVEETLGTLSDRYPLVLITKGDLLHQEQKLAASGLGDLFAGVEIVSAKLPSTYDTAFSVHGVGPKHAMMVGNSMKSDIRPALDAGAFAVYVPHGLTWELEHTETPVGHPRYHELPDLGGLIDLIETVTD”, the “soluble on expression in E. coli” value is reported as “not soluble”.
The entry for “MKTVVFAYHDMGCLGIEALLAAGYEISAIFTHTDNPGEKAFYGSVARLAAERGIPVYAPDNVNHPLWVERIAQLSPDVIFSFYYRHLIYDEILQLAPAGAFNLHGSLLPKYRGRAPLNWVLVNGETETGVTLHRMVKRADAGAIVAQLRIAIAPDDIAITLHHKLCHAARQLLEQTLPAIKHGNILEIAQRENEATCFGRRTPDDSFLEWHKPASVLHNMVRAVADPWPGAFSYVGNQKFTVWSSRVHPHASKAQPGSVISVAPLLIACGDGALEIVTGQAGDGITMQGSQLAQTLGLVQGSRLNSQPACTARRRTRVLILGVNGFIGNHLTERLLREDHYEVYGLDIGSDAISRFLNHPHFHFVEGDISIHSEWIEYHVKKCDVVLPLVAIATPIEYTRNPLRVFELDFEENLRIIRYCVKYRKRIIFPSTSEVYGMCSDKYFDEDHSNLIVGPVNKPRWIYSVSKQLLDRVIWAYGEKEGLQFTLFRPFNWMGPRLDNLNAARIGSSRAITQLILNLVEGSPIKLIDGGKQKRCFTDIRDGIEALYRIIENAGNRCDGEIINIGNPENEASIEELGEMLLASFEKHPLRHHFPPFAGFRVVESSSYYGKGYQDVEHRKPSIRNAHRCLDWEPKIDMQETIDETLDFFLRTVDLTDKPS” is “soluble”.
With “MSLSTLRIAMTAADIPLTLGQPDQGYEGNRFTGIPLYDALVEWDLSQGEKPSGLVPGLATEWHIDPQNTSRWIFTLRPGVKFHDGTEVNADAIVWNVDKVLNKAAPQYAPGQIGNTLSRMPTLTGAEKIDDHTVALTTSEPDALLPYNITNLFIVSPTAWQKQYDAVPASVGDSAARSKQAWTAFAAHAVGSGPFKLEKLVPRQQLILDKNPDYWNKDRIPRVDKVVLIPLPEANARTAALLSKQVDWIEAPAPDAIDQIKSQGFHLYANTQPHLWPWQFSFEKGSPWQDIRVRKAANLCLNRAELKSYLGGYMTEATGVYEADSPWHGKPTFQIKYDPDVARQLMTEAGYSASKPLHVTVATSASGSGQMQPLPMNEYIQQSLKSCFFNVDIKVVEWNTLFTNWRLGARDPSAKGIDAINVSAAVNDPYFGLIRFSTAKAFPPVATNWGYFSTPETEKLAAAVKHAFTPAEMNKAAGELHAALVDQVPFLFVAHDVGPRAISPAVTGVVQPQSWFIDLSLVSKKEGHHHHHH” the entry was “soluble”.
The entry for “MKFKELSPSTYAEEFIRSKILVEEDGTAIKSQRELSADLGVSRNAIKYALKRLQYDGDIRIKERQGIEINKKRDINLLSMEPMSKELKQAEMHIKHISSEIIKTPDSLVDFFGNATELAEIKRIRLDDKDVVSFEISYLDNRKFEDIASVNFNECSLYQILENRYGKLPIYGYENITCVLANESLATKLNVKINTPLYQVDSYNYSDDDKAVEHTAQFLPANKIKYHFKAKNIFDYQEDDDDDII” is “not soluble”; for “MPNPPAKEDTWAFGPIGSPFPDNPVKALGQQNMYVALWYKNGRPMHGRAWNNGGVIECSFPYNKSELTGVKDLGGQIQVLQYKGNHLSLGYWYNWIKYSDRFDKMDKGAEMLRCGDSFPILWSERPGGALLGYADNKTEIARFSHDGKVDEVSGSALANMLIIARELKGGPPYCECEECKSEPPKPIVRVTLNEWADFRCGDPWPTVGTPVRALGRSLDTLPGENPDQYVALWYQSGEPVMGRIWNDGGKIAACFGWGGHEYRQKIGSIQILYELPEAIRGFDYDWKPFPEAAQFGAKEWIPVHVDHHKGNISPAVLIVDGKEILGKADIRNERATIGYGGTEKVLVGPAVHSCMVLCRKAKPGCTID” it is “soluble”.
On to “MVKVKIYYKDREWPPEYRKVLEKMKEIIDPVTGESILDSGVLAGLEVKGDTLKVWLKFESNAEYNILGSAAMAYSKIVGDIMEKFALVMFDKVYVYDLGNNPIGIFENKGNGRK”, for which the “soluble on expression in E. coli” value is reported as “soluble”.
The entry for “MFFIRTAGLRDIEPVRTLLATTWHATYDAIYGADKVNELIAVWHSPQAMKDRVEKKGGEFLVADDGKRIGGMAYGSMSTKMAKTALLHQLYVAPDLQRQGVGRDLFAELETCFPDAEIMRLEVEPKNTVAIAFYEGVGFVEVDRIERMAGIEGLPGIVMEKSLTR” is “not soluble”; for “TSSLSYWQGEAFRRGFDSRGRFDDVLKILLLLDAAQKEGKALPVQEFRRHINMGYDELGELLEKLARHGYIYSGRQGWVLKTGADSIELNELFKLFVYRPLPVERDHVNQAVDAVMTPCLQTLNMTLAEFDAQAKKRQ” it is “not soluble”.
Regarding “MKARQQKYCDKIANFWCHPTGKIIMSLAGKKIVLGVSGGIAAYKTPELVRRLRDRGADVRVAMTEAAKAFITPLSLQAVSGYPVSDSLLDPAAEAAMGHIELGKWADLVILAPATADLIARVAAGMANDLVSTICLATPAPVAVLPAMNQQMYRAAATQHNLEVLASRGLLIWGPDSGSQACGDIGPGRMLDPLTIVDMAVAHFSPVNDLKHLNIMITAGPTREPLDPVRYISNHSSGKMGFAIAAAAARRGANVTLVSGPVSLPTPPFVKRVDVMTALEMEAAVNASVQQQNIFIGCAAVADYRAATVAPEKIKKQATQGDELTIKMVKNPDIVAGVAALKDHRPYVVGFAAETNNVEEYARQKRIRKNLDLICANDVSQPTQGFNSDNNALHLFWQDGDKVLPLERKELLGQLLLDEIVTRYDEKNRR”, the “soluble on expression in E. coli” value is “not soluble”.
The entry for “MGSDKIHHHHHHLIPVLDTDAWVEKLLSTRRSAEGKILAFYEHRMEAICRDPRLLLMPADDHLAHRGDGVFESMKFEGRRLYQLDAHLERMERSARGIYLTPPCTQSVLRDIVLQVARAADTPDGCIRILLGRGPGGFGIDPAECPVPSLYVVAYSLTPKPEEWYEKGVTAFRTSIPAKQGYLATIKNANYIPNVLMKLEARSRGCDIPVSFDENDFIAEGPTENLCLVDADGTLVVPEFTNALSGTTIMRVIDLVRDEMNVAFRKVREDELYRAAEVMVLGTTTECVSVVSFEGQPVGGGRPGPVARRFRELLRRDLAENGISF” is “not soluble”; for “MIRVACVGITVMDRIYYVEGLPTESGKYVARNYTEVGGGPAATAAVAAARLGAQVDFIGRVGDDDAGNSLLAELESWGVNTRYTKRYNQAKSSQSAIMVDTKGERIIINYPSPDLLPDAEWLEEIDFSQWDVVLADVRWHDGAKKAFTLARQAGVMTVLDGDITPQDISELVALSDHAAFSEPGLARLTGVKEMASALKQAQTLTNGHVYVTQGSAGCDWLENGGRQHQPAFKVDVVDTTGAGDVFHGALAVALATSGDLAESVRFASGVAALKCTRPGGRAGIPDCDQTRSFLSLFV” it is “not soluble”.
As to “MSEQYKQPNTPEPYWRQSTPLPDFKPLQNDLLVDVVIVGGGITGITTAYLLQKRGKKVVILEADRLFNGTTGHTTAKITAQHGLIYDEFIQHFGEDKAKQYYDAQMEAKTFIKNTVQDLSIDCDFQEHDAYIYTNANRYLAKLEREMRAYEKLQINGSLIDSMPLQVPIKKAIVMKGQAQFHPIAYLMKLVQDFIDRGGLIFEHTVATDVDKGEHRTVLTRDGHKVTCDYVVESSHFPFFDRGFYFSRMYADRSYVLGLKVKEPYPGGMYLSAEDPPRSIRHASYQGEDLWLISGETHKTGQGMDTDYHYEALESFSREMFNVTDISYRWSAQDLVTLDRMPYIGPATSNDPHILVATGFRKWGMTNGTIAAHVITDLIIGQVNAYQKLFAPQRFVADPSLRKFFSYNVDVAKHLIDGKTEKGSRTPESLQKDEGDVVNVNGKRAGGYRDTDGALHLVDTTCTHMGCEVSWNHGDRTWDCPCHGSRFSYDGEVVEGPAKKPLKKIDHTLEHHHHHH”, the “soluble on expression in E. coli” value was “soluble”.
In the case of “PMMPPVGVQASILSHDTIRITWADNSLPKHQKITDSRYYTVRWKTNIPANTKYKNANATTLSYLVTGLKPNTLYEFSVMVTKGRRSSTWSMTAHGTTFEL”, the “soluble on expression in E. coli” value is given as “soluble”.
With “MKQRPKEYYEQLEELQAVDFTLVELTLYLDTHPTDYQAIQQFNQLAQKRKQLKKQFEAAYGPLEQFGHSYSNYPWNWDDTPWPWQV” the entry was “not soluble”; with “MIDHLSRAVISDPEQNLAIEQKESDHILPDSKMTPLRFRKRTLHETKIRTHSTLTENVLSHKLQFDGRIVSRTNVLPFIQKSIYSHQCGRRKGKQYRLGDFYVGATLTFLSSDHLSLPESIKENTLLKLRITNIDQIALDSLKTASMEQEDDIIIQETNDRLVFKAIQDVLKEKLHKRGVRILTGLGKYFQQLDKEGNGLLDKADFKQALKVFHLEVSEKDFESAWLILNDNGNGKVDYGEFKRGIIGEMNEYRKSYVRKAFMKLDFNKSGSVPIINIRKCYCAKKHSQVISG”, “soluble”.
The entry for “YPNASPLLGSSWGGLIHLYTATARNSYHLQIHKNGHVDGAPHQTIYSALMIRSEDAGFVVITGVMSRRYLCMDFRGNIFGSHYFDPENCRFQHQTLENGYDVYHSPQYHFLVSLGRAKRAFLPGMNPPPYSQFLSRRNEIPLIHFNTPIPRRHTR” is “soluble”; for “AARLPVAPRHLPTLEKFRAEQPTVQGTSTPTISANAALLIGSLLQSEKLPFEVMAARLSPERYALQQFHGSDLQQMLGRFAEPGHLPGKAETEQLIKGFARSLADQLEHFQLMHDATAEAFGPGGLRDRNTLAVSQAALGEYAGRASKSIEAGLNHSLAVLDERIAALDSQLEGATEDSRPVLLMDRQALETARAMLSDLHVDFCKSPEAKRLSAVAAHTQMDALIDKLNVDRSSVGGWKGIGPIVAAAVPQFMVSMLHLGYIRTATSDAMKDAVPEKSADASMKRALAVGLTAGVAHEGVTNLLKPMVQAGFQKAGLNERLNMVPLKGIDTDSVIPDPFELKNDNGALVRKTPEEAAEDKAFVASERAVLNQKKVQVSSTHPLGEMIPYGAFGGGQAVRQMLNDFNLLNGQTLSARAVTSGIAGAISATTQTIAQLNSTYVDPRGRKIPVFTPDRANADLGKDLAKGLDLREPAVRTAFYSKAVSGVQSAALNGALPSVAVQPQGASGTLSAGNIMRNMALAATGSVSYLSTLYANQSVTAEAKALKEAGMGGATPMVARTETALSNIRHPDRASLPHTFQPDTLGGVPRAVENAYHMARGALQLPTQVVVDTVRVVEDGVASGVSSLRDAHKPAET” it is “not soluble”.
The entry for “CILRFIACNGQTRAVQSRGDYQKTLAIALKKFSLEDASKFIVCVSQSSRIKLITEEEFKQICFNSSSPERDRLIIVPKEKPCPSFEDLRRSWEIELAQPAALSSQSSLSP” is “soluble”; for “MGSDKIHHHHHHMNVINETANVLKLETGSVTSAKGFSAVGIHTGVKRKRKDLGAIVCEVPASSAAVYTLNKVQAAPLKVTQESIAVEGKLQAMIVNSGIANACTGKRGLDDAYTMRAVGAETFHIPEHYVAVTSTGVIGEFLPMDVITNGIRQLKPEATIEGAHAFNEAILTTDTVEKHTCYQTIVNGKTVTVGGVAKGSGMIHPNMA” it is “soluble”; for “MLAMKLGIVGLGGWVTGAHIPALTDLGIKVDYCADIDEKRVKDLSQKTGCKGYLDYKEMLRNENPDLVLVAVPHSLHAIIALDAINNDANVYVEKPMATSFQEALTLVEASRKRNKILVVGHENRFNPAMLIAKKLIRGGEVGKIYHMRGFYIRQRGIPTSPTFIKKDLAKGGAVFDIGTHIIDLLLFLSDFPTPKSVTGKTYNAFSEDKTKFSAYPSPNLPNFKVEVEDFGSAFLKLGDEISAYVEVSWASYIKENKMEVVILGDNGGIHIDNGVLNFMRNIEDELFISSPLTQQKGSVYREVWRTVMESISKGFPEYPLCSAEQGAIGVAILESIYKSALEGREVKIDIPQWFLKQFQPRALEHHHHHH” it is “not soluble”.
